The values below come from article PMC6082832, “Effects of polymorphic variation on the thermostability of heterogenous populations of CYP3A4 and CYP2C9 enzymes in solution” (Scientific Reports, 2018).

This data set concerns the molecule itself. Description: SEC; BioSep-SEC-S3000 column (5-700 kDa), room temperature, 0.5 ml/min, 100 mM potassium phosphate pH 7.4; 20 µl sample at ~2 mg/ml total protein; monitored at 410 nm; sizes estimated from the Bio-Rad gel filtration standard calibration curve.

B1: CYP2C9 wild-type, N-terminally truncated, His-tagged recombinant protein (enzyme, human, UniProt P11712 29-490, looked up)
chain: LPPGPTPLPVIGNILQIGIKDISKSLTNLSKVYGPVFTLYFGLKPIVVLHGYEAVKEALIDLGEEFSGRGIFPLAERANRGFGIVFSNGKKWKEIRRFSLMTLRNFGMGKRSIEDRVQEEARCLVEELRKTKASPCDPTFILGCAPCNVICSIIFHKRFDYKDQQFLNLMEKLNENIKILSSPWIQICNNFSPIIDYFPGTHNKLLKNVAFMKSYILEKVKEHQESMDMNNPQDFIDCFLMKMEKEKHNQPSEFTIESLENTAVDLFGAGTETTSTTLRYALLLLLKHPEVTAKVQEEIERVIGRNRSPCMQDRSHMPYTDAVVHEVQRYIDLLPTSLPHAVTCDIKFRNYLIPKGTTILISLTSVLHDNKEFPNPEMFDPHHFLDEGGNFKKSKYFMPFSAGKRICVGEALAGMELFLFLTSILQNFNLKSLVDPKNLDTTPVVNGFASVPPFYQLCFIPV
modifications: biotin on the BCCP tag (50 µM biotin added to facilitate biotinylation)
notes: cytochrome P450 2C9, human; Vector pBJW102.2 (pQE-80L with BCCP and a glycine-serine linker 3' to the His-6 tag); also called CYP2C9 WT; source: E. coli DH5α, purified (Protino Ni-TED His-tag purification)
Consider B1, for which the stoichiometry N (in general, the number of molecules, sites or subunits per partner or assembly) is about 8 subunits.
